Measurements as given in patent publication EP1088233B9, “A BIOLUMINESCENCE RESONANCE ENERGY TRANSFER (BRET) SYSTEM AND ITS USE” (PerkinElmer BioSignal Inc., priority 1998, dated 1999).
Like-named read-outs stand apart in the source and are kept apart here.

Legend:
[1] = target: Rluc-caspase-EYFP (apoptosis sensor) (Renilla reniformis; Aequorea victoria) (UniProt P27652); experiment: cell-based or functional assay
Rluc = target: T1, Rluc (Renilla reniformis, UniProt P27652); experiment: Rluc luminescence with coelenterazine derivatives in cells transfected with pRluc-CMV (LumiCount); set-up: Normalized RLU: dose or concentration left out as unconfirmed; conditions: for Normalized RLU: derivatives, 4 minutes after addition; for half-life of the reaction (Rluc luminescence): coelenterazine f 1 mM
T1 sequence (P27652 1-311): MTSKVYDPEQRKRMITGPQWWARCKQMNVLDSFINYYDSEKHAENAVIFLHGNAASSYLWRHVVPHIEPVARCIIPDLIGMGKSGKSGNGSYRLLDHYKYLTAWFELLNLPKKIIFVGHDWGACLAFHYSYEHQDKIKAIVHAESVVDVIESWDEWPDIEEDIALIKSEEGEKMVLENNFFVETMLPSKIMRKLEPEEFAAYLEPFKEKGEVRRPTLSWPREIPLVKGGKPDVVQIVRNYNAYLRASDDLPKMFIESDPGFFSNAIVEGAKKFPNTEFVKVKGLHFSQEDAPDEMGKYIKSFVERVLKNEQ
Method: i) Coelenterazine derivatives. […] Cells (HeLa) were transiently transfected inT-75 flask with pRluc-CMV orcontrol vector using LipofectAMINE. At 48 hours post-transfection, cells were harvested and seeded in 96-well white ViewPlate (in duplicate). Coelenterazine derivatives (1 mM) were then added in each well. Luminescence from transfected cells was measured using the LumiCount 4 minutes after addition of coelenterazine derivatives. LumiCount was set at 1100V PMT and 1 sec read length.
Cells (HeLa and CHO) were transiently transfected inT-75 flasks with pRluc-CMV using LipofectAMINE. At 48 hours post-transfection, cells were harvested and seeded in 96-well white ViewPlate at a density of 50 000 cells per wells (in quadruplicate). Coelenterazine f (1 mM) was then added in each well. Luminescence from transfected cells was measured using the LumiCount at different times after addition of coelenterazine. LumiCount was set at 1100V PMT and 0.1 sec read length.

[2] = target: enhanced yellow fluorescent protein (EYFP) (Aequorea victoria); experiment: BRET in co-transfected cells, LumiCount, white microplate, 200 ul, 5 uM coelenterazine, 50,000 cells per well
[3] = target: enhanced yellow fluorescent protein (EYFP) (Aequorea victoria); experiment: BRET in co-transfected cells, LumiCount, black microplate, 200 ul, 5 uM coelenterazine, 50,000 cells per well
[4] = target: enhanced yellow fluorescent protein (EYFP) (Aequorea victoria); experiment: BRET in co-transfected cells, LumiCount, white microplate, 100 ul, 5 uM coelenterazine, 50,000 cells per well
calcitonin receptor [5] = target: T2, calcitonin receptor (Cricetulus griseus, UniProt G3GXI2); conditions: literature values; read-out: EC50 found in literature for a functional assay; cited from earlier work
T2 sequence (G3GXI2 40-539): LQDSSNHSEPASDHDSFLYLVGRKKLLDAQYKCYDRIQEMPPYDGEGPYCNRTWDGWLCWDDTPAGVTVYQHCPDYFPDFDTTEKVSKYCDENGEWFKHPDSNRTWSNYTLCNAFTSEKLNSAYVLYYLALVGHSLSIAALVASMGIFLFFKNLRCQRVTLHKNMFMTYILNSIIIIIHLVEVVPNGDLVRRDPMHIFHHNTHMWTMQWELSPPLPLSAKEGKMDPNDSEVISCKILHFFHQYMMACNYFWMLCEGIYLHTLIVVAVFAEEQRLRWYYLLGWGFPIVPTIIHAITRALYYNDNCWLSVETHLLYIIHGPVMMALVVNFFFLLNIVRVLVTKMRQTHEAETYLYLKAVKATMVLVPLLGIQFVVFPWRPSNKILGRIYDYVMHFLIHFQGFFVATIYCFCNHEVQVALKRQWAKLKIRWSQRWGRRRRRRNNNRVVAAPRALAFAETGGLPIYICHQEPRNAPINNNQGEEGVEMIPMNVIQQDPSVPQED

calcitonin receptor [6] = target: T2, calcitonin receptor; experiment: cAMP sensor (CBP:CREB) BRET assay in CHO-K1 cells, endogenous calcitonin receptor; type: cell-based
Method: The pCDNA3./Rluc-CBP-NLS and pCDNA3.1 /EYFP-CREB-NLS DNA constructs were transiently transfected into CHO-K1, CHO-CCRS or CHW-β2 cell lines using LipofectAMINE™ (BRL/Gibco-Life technology, Gaethersburg, MD) using equal amount (4 µg) of DNA for each construct in 100mm dishes.
BRET assay using the transfected cells in suspension. At 48 hours post-transfection, the transfected cells were starved for 2 hours in a mixture of PBS + Ca2 + 1 mM/Mg2 + 0.5mM + glucose 1 g/l +aprotinin 2 µg/ml at 37°C before being harvested, washed with a mixture of PBS Ca2+/Mg2+ + glucose + aprotinin 2 µg/ml and counted. […]
BRET assay using transfected cells attached onto the bottom of the microplate. […] At 48 hours post-transfection, the transfected cells were starved as previously mentioned, washed and then analyzed without being harvested.
The assay conditions for both methods (cell in suspension or attached), cells were in PBS Ca2+ Mg2+ + glucose + aprotinin 2 µg/ml in volume of […]. […] Each well was read using both filters for 1 second each.
The CHO-K1 cells were transfected with both constructs. At 48 hours post-transfection, the cells were starved for 2 hours, washed, harvested and counted. […] The microplate was loaded into the BRETCount and light outputs at 470nm and 550nm were determined at several points to determine a timecourse (fig. 10). […]

[7] = target: EGF receptors expressed endogenously by GH4-C1 cells; experiment: cell-based or functional assay
[8] = test system: HeLa cells transfected with the apoptosis sensor; experiment: Apoptosis sensor (Rluc-caspase-EYFP) BRET assay; type: cell-based; conditions: staurosporine 1mM, 5 hours of apoptosis induction, 10 minutes after coelenterazine h
Excerpt: A BRET apoptosis sensor was engineered by introducing a caspase-3 recognition site in the linker regionof the Rluc-EYFP fusionconstruct. Upon inductionof apoptosis, caspase-3 should recognize and cleave the linker region which should separate Rluc of EYFP and thereby decrease the BRET ratio over time.
pCEP4/Rluc-EYFP and pCEP4/Rluc-caspase-EYFP DNAs were transfected into HeLa cell using LipofectAMINE (BRL/Gibco-Life technologies) in 100mm dishes as described in the manufacturer's protocol. 24 hours post-transfection, transfected cells were harvested and distributed into 96-well microplates (white Optiplate from Packard) at a density of 30,000 cells per well. The following day, cells are induced to undergo apoptosis using staurosporine 1mM dissolved in ISCOVE media (BRL/Gibco-Life technologies) without serum and phenol red at 37°C (total volume here is […]) for 5 hours. […] of BRET buffer (PBS Ca^2+/Mg^2+ + glucose without aprotinin) and […] of coelenterazine h […] is added to start the bioluminescent reaction. Light emissions are detected using the BRETCount (read length sec for each filter, temperature 25°C). Data was collected 10 minutes after addition of coelenterazine h. The assay was done in quadruplicate.
Figure 31 gives representative BRET ratio changes in HeLa cells after 5 hours of apoptosis induction by staurosporine. […]

[9] = Cell viability by trypan blue dye in BRET assay media; type: cell-based; conditions: hamster, cho cells
Method: The effect of the type of media on the luminescence of the Rluc was assayed in absence or in the presence of various amount of DTT. Transfected CHO cells were collected and redistributed in 96 well plate using different media conditions (Figures 24-26). Luminescence timecourses at 470nm (TopCount) were performed at 25°C upon coelenterazine addition. The effects of three different media were assayed: PBS Ca^2+/Mg^2+ (Figure 24), PBS Ca^2+/Mg^2+ + glucose (Figure 25) and DMEM without phenol red (Figure 26).
Similar results were found in presence of 100mM DTT: PBS alone gave higher long term counts. As expected, increasing the concentration of DTT improved Rluc stability in all three media. Unfortunately, high amounts of DTT (50 and 100mM) which gave the best stability, damaged the cells: viability was assayed using trypan blue dye and decreased more than 20% over a period of 2 hours. […] This concentration was chosen for the BRET assays. […] However, DTT is not necessary for the BRET reaction to occur efficiently: as it acts as a boost for the Rluc long term emission.
In order to avoid cell damage during the assay procedure and timecourse experiments, an analysis was conducted to determine whether the use of aprotinin perturbs ratiometric measurements. Aprotinin is a protease inhibitor which is often used during cell culture to maintain cell integrity. […]

[10] = Effect of DTT on BRET ratio in stable cell lines expressing Rluc or Rluc::EYFP (BRETCount); type: cell-based; conditions: DTT 10mM in PBS+Ca2+/Mg2++glucose
Method: PBS=PBS+Ca^2+/Mg^2++glucose. DTT 10mM. […] PBS=PBS+Ca^2+/Mg^2++glucose DTT 10mM.
In PBS (Ca ^2+/Mg^2++glucose) alone, BRET ratios are lower than in presence of DTT. When DTT is added, ratios increase by almost 0.1 BRET unit.

[11] = target: calcitonin receptor expressed endogenously by CHO-K1 cells; experiment: cell-based or functional assay
[12] = target: EYFP•KaiB fusion protein (Aequorea victoria; Synechococcus (cyanobacterium)) (UniProt Q79PF5); experiment: BRET luminescence spectra, co-expression in E. coli
[13] = target: EYFP•KaiB fusion protein (Aequorea victoria; Synechococcus (cyanobacterium)) (UniProt Q79PF5); experiment: BRET imaging of E. coli cultures through 480 and 530 nm filters, cooled-CCD camera
[14] = target: EYFP•KaiA fusion protein (Aequorea victoria; Synechococcus (cyanobacterium)) (UniProt Q79PF6); experiment: as above
Sequence of EYFP•KaiA fusion protein (Aequorea victoria; Synechococcus (cyanobacterium)) (Q79PF6 whole entry, the tested form may be a part): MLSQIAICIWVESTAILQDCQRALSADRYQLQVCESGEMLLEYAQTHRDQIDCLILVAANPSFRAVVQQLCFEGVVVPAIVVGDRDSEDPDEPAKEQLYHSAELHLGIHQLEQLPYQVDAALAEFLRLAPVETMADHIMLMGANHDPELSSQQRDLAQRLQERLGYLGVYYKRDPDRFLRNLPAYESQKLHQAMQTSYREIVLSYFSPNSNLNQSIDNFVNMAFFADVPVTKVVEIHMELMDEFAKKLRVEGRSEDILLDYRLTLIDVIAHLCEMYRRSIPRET

Sequence of EYFP•KaiB fusion protein (Aequorea victoria; Synechococcus (cyanobacterium)) (Q79PF5 whole entry, the tested form may be a part): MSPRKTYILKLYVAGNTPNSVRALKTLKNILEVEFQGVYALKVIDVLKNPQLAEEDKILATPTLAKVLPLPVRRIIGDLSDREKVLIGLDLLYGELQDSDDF

caspase-3 (endogenous in HeLa cells) (from UniProt P42574 29-277) (enzyme)
BRET ratio change in HeLa cells after 5 hours of apoptosis induction by staurosporine [1]: 0.1 unit

Oc1ccc(-c2cn3c(O)c(Cc4ccccc4)nc3c(Cc3ccccc3)n2)cc1 [h, coelenterazine h]
Normalized RLU (Rluc; HeLa cells): 173547 RLU

Renilla luciferase (RLUC) (from UniProt P27652 1-311) (enzyme)
Ratio 530/480 [2]: 0.87
Ratio 530/480 [3]: 0.76
Ratio 530/480 [4]: 0.9

Oc1ccc(-c2cn3c(O)c(Cc4ccc(F)cc4)nc3c(Cc3ccccc3)n2)cc1 [f, coelenterazine f]
half-life of the reaction (Rluc luminescence) (Rluc; CHO cells): 11 min
half-life of the reaction (Rluc luminescence) (Rluc; HeLa cells): 13 min
Normalized RLU (Rluc; HeLa cells): 180126 RLU

calcitonin
EC50 (calcitonin receptor [5]): 0.03 to 0.06 nM
EC50 (calcitonin receptor [6]; CHO-K1 transfected with cAMP sensor, attached cells, data point at 45 minutes after addition of coelenterazine): 0.027 nM
BRET ratio over time (calcitonin receptor [6]; calcitonin 2 nM and 10nM, CHO-K1 cells in suspension, compared to buffer alone): Ratios increased over time

EGF (ligand)
EC50 of the EGF dose response, BRET ratio of the TKR sensor (Rluc-PTB + EYFP-SH2) in GH4-C1 cells at 45 minutes post induction [7]: 0.92 nM

CN[C@@H]1C[C@H]2O[C@@](C)([C@@H]1OC)n1c3ccccc3c3c4c(c5c6ccccc6n2c5c31)C(=O)NC4 [staurosporine]
BRET ratio change (decrease) [8]: 0.1 unit

OC(CS)C(O)CS (stereo not shown) [DTT]
cytotoxicity at 2 h, 10000 µM ([9]; DTT 10mM, over 2 hours, read-out: viability loss): < 15%
cytotoxicity at 2 h ([9]; DTT 50 and 100mM, over a period of 2 hours, read-out: viability decrease): > 20%
increase of BRET ratio [10]: ~0.1 BRET unit

Oc1ccc(-c2cn3c(O)c(Cc4ccccc4)nc3c(CC3CCCC3)n2)cc1 [hcp]
Normalized RLU (Rluc; HeLa cells): 48144 RLU

calcitonin (peptide)
EC50 of the calcitonin dose response, BRET ratio of the cAMP sensor in attached CHO-K1 cells at 45 minutes [11]: 0.027 nM

Oc1ccc(Cc2nc3c(Cc4ccccc4)nc(-c4ccc(O)cc4)cn3c2O)cc1 [native, coelenterazine]
Normalized RLU (Rluc; HeLa cells): 2030 RLU

RLUC•KaiB fusion protein (from UniProt Q79PF5 1-102)
share of the RLUC luminescence for which energy transfer occurs [12]: 50%
530/480nm ratio of luminescence [13]: 0.9
530/480nm ratio of luminescence [14]: 0.4
